The results in this text go back to paper PMC5962637, “Simultaneous cell disruption and semi-quantitative activity assays for high-throughput screening of thermostable L-asparaginases” (Scientific Reports, 2018).

Substrate in the series: NC(=O)C[C@H](N)C(=O)O
The series can be described thus: ammonia release with Nessler's reagent, A450; Michaelis-Menten plot. The class given is biochemical, Pyrococcus yayanosii. The following applies: 50 mM Tris-HCl pH 8.0, 95 °C, substrate range 0.05-2.0 mM.

B1: P. yayanosii CH1 L-asparaginase (pyasnase) (Pyrococcus yayanosii CH1) (protein)
chain: MRLLILGMGGTIASVPSEEGYESSLSVEEILRLAGLELKWEVEARDLLNIDSTLIQPEDWVLLAETVFEAFEEFDGVVITHGTDTLAYTASMLSFMVRNPPVPIVLTGAMRPITEPGSDAPRNLWTALRFAIEGVPGVYVAFMDKVMLGVRVSKVRAVGLNAFQSINYPDIAYVKGNRIHWNAKPPKLEGEPVLDTRHEPRVLVLRLVPGMEGDVLEAALELGYRGIVLEGYGVGGIPYRGRDLLDVVRRVATEIPVVMTTQTLYDGVDLTKYKVGRKALEVGVIPAGDMTKEATITKLMWILGHTRDVGEVRRLMLTNMVGEIGKSA
notes: C-terminal His-tag (in primer R1); codon-optimised synthetic gene, pMA5, Bacillus subtilis 168; homodimer (homology model)
A word on the Km: it is the concentration of substrate that gives half-maximal velocity. Take B1: the Michaelis constant (Km) is listed as 6.5 mM.
